In patent US6284456, “Transcriptional coactivator that interacts with Tat protein and regulates its binding to TAR RNA, methods for modulating Tat transactivation, and uses therefor” (The Salk Institute for Biological Studies, dated 2001):

Biological target: cyclin T1 (native 87 kDa protein of HeLa nuclear extract) (human)
Experiment: GST-Tat bead pull-down from HeLa nuclear extract, SDS-PAGE, silver stain

cyclin T1 (native 87 kDa protein of HeLa nuclear extract) (human), sequence (chain, as listed by the source limits assumed): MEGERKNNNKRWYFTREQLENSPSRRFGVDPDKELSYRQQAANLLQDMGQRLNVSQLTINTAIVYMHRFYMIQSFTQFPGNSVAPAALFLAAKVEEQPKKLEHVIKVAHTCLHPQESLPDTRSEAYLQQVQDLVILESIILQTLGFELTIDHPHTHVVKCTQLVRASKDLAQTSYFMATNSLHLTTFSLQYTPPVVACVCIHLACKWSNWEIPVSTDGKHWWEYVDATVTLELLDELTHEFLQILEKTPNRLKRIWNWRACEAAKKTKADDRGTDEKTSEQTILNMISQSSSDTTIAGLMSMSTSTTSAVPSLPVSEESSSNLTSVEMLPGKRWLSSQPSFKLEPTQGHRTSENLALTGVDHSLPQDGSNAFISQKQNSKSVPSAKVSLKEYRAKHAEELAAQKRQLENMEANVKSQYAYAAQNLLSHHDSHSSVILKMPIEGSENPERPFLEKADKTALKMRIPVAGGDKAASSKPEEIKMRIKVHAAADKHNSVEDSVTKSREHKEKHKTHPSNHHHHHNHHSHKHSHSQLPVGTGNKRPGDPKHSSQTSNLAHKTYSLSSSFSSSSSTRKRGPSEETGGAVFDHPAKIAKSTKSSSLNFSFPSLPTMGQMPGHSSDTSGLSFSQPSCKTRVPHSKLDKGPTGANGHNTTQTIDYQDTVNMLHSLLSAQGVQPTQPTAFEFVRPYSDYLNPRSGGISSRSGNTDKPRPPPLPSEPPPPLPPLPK

MEPVDPRLEPWKHPGSQPKTACTNCYCKKCCFHCQVCFITAALGISYG (other) [GST-Tat-1 K41A (aa 1-48)]
binding result: no binding
